Reference: patent US20250002596A1, “NEUTRALIZING ANTI-CD95L MONOCLONAL ANTIBODIES” (INSTITUT NATIONAL DE LA SANTÉ ET DE LA RECHERCHE MÉDICALE, priority 2021, published 2025)
Entries after “also recorded” stand apart in the source; their conditions may differ.

Columns and labels:
IgCD95L = IgCD95L (UniProt P48023); experiment: SPR
CD95L = CD95L (UniProt P48023); experiment: flow cytometry (1A12 cells)
[1] = biological target: T1, human CD95L expressed on cells (UniProt P48023 1-281); experiment: flow cytometry (1A12 cells)
T1 chain: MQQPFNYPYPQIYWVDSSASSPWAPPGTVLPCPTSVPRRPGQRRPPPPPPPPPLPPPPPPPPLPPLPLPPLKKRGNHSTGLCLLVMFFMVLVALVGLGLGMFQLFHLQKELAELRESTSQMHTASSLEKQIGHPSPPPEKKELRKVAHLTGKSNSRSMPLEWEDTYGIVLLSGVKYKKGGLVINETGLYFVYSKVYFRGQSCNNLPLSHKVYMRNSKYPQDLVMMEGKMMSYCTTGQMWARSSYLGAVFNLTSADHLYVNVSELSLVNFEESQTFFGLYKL

[2] = biological target: T2, Ig-CD95L (soluble and cytotoxic human CD95L) (UniProt P48023 103-281); experiment: SPR
T2 chain: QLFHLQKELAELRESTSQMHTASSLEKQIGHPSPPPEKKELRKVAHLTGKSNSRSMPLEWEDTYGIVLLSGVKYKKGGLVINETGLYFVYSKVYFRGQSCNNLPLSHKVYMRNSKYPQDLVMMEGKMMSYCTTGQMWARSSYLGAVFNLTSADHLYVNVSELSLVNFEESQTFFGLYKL

[3] = biological target: T3, human CD95L expressed on cells (human, UniProt P48023 1-281); experiment: flow cytometry on HEK/293T cells transiently transfected with CD95L, antibody at 1 µg/ml
T3 construct: also called FasL; FASL
T3 sequence: T1 chain
Description: (§1) FIG. 1. JQ3 recognizes human and simian CD95L and is a stronger neutralizing anti-CD95L mAb as compared to the commercial anti-CD95L antibody NOK-1. A. Kon, Koff and Kd of JQ3 (IgG1κ) and NOK-1 (IgG1κ) hybridoma measured by surface plasmon resonance. IgCD95L was immobilized on a sensor chip S CM5 and antibody binding features was evaluated using a Biacore T200. B. The ability of the anti-human CD95L monoclonal antibodies NOK-1 and JQ3 and anti-mouse CD95L monoclonal antibody MFL3 (1 μg/ml) to recognize human, simian or mouse CD95L was determined by flow cytometry using HEK/293T cells transiently transfected with indicated CD95L-encoding pcDNA3.1 vectors. C. The binding efficiency of NOK-1 and JQ3 was compared by flow cytometry against CD95L-expressing 1A12 cell line. Left panel: Histograms report the intensity of CD95L staining (CD95L mean of fluorescence—isotypic mean of fluorescence) according to the antibody concentration (M). Right panels: examples of CD95L staining, in red the JQ3 or NOK-1 staining and in grey the isotypic staining. Table indicates the half maximal effective concentration (EC50) for each antibody. D. The neutralizing ability of NOK1 and JQ3 mAbs was compared by incubating CD95-sensitive Jurkat cell line (5.10⁵ cells) for 24 hours with 100 ng/ml of Ig-CD95L (soluble and cytotoxic human CD95L) in the presence or absence of the indicated concentrations of antibody.

simian CD95L = experiment: Flow cytometry recognition of CD95L on transiently transfected HEK/293T cells; type: cell-based; details: antibody 1 μg/ml, HEK/293T cells transfected with CD95L-encoding pcDNA3.1 vector
Description: as §1, with “JQ3 recognizes human and simian CD95L and is a stronger neutralizing anti-CD95L mAb as compared to the commercial anti-CD95L antibody NOK-1.” left out, “(5.10^5” for “(5.10⁵”

human CD95L = biological target: T4, human CD95L (Homo sapiens, UniProt P48023); experiment: as above; type: cell-based; details: antibody 1 μg/ml, HEK/293T cells transfected with CD95L-encoding pcDNA3.1 vector
T4 construct: expressed in transfected cells; host or cells: HEK/293T
T4 sequence (P48023 1-281): T1 chain
Description: as §1, with “JQ3 recognizes human and simian CD95L and is a stronger neutralizing anti-CD95L mAb as compared to the commercial anti-CD95L antibody NOK-1.” left out, “(5.10^5” for “(5.10⁵”

[4] = tested on: Ig-CD95L (soluble and cytotoxic human CD95L); experiment: Neutralization of Ig-CD95L-induced cell death in Jurkat T-cells (MTT assay); type: cell-based; details: 24 hours, 100 ng/ml Ig-CD95L, compared with NOK-1
Description: as §1, with “JQ3 recognizes human and simian CD95L and is a stronger neutralizing anti-CD95L mAb as compared to the commercial anti-CD95L antibody NOK-1.” left out, “D. The neutralizing ability of NOK1 and JQ3 mAbs was compared by incubating CD95-sensitive Jurkat cell line (5.10⁵ cells) for 24 hours with 100 ng/ml of Ig-CD95L (soluble and cytotoxic human CD95L) in the presence or absence of the indicated concentrations of antibody.” left out
Cell viability was assessed using MTT (3-(4,5-dimethylthiazol-2-yl)-2,5-diphenyltetrazolium bromide) assay as previously described (48). […] Then, MTT (15 μl at 5 mg/mL in PBS) was added, and after 4 h of incubation at 37° C., the absorbance was measured at 570 nm wavelength using the Infinite200Pro (Tecan, Männedorf, Switzerland).

[5] = tested on: CD95-mediated Ca^2+ response in neutrophils; experiment: Calcium response (Cal-520 imaging) of healthy donor neutrophils stimulated with patient sera; type: cell-based, human; details: sera from AAV or COVID-19 patients pre-incubated 30 min with antibody 10 μg/mL

NOK1
Kd (IgCD95L): 5.3 nM

NOK-1
EC50 (CD95L): 353000 nM

B1: JQ3 neutralizing anti-CD95L monoclonal antibody (IgG1κ) (antibody, V domains shown)
VH: EIQLQQTGPELVKPGASVKISCKASGFSFTDYIMVWVKQSHGKILEWIGDISPYYGTATYNLKFKGKATLTVVKSSSTAYMQLNSLTSEDSAVYYCARAPNRYEVMDYWGQGTSVTVSS
VL: QIVFTQSPAIMSAFLGEEITLTCSASSSVSYMHWYQQKSGTSPKLLIYNTFNLASGVPSRFSGSGSGTFYSLTISSVEAEDAADYYCHQWSSYPTFGGGTKLEIK
notes: Mouse (Balb/c) hybridoma antibody, IgG1 kappa, purified on protein A; also called JQ3 mAb
EC50 [1]: 5.53 nM | Kd [2]: 2.2 nM | binding result [3]: binds

B2: JQ3: neutralizing anti-CD95L monoclonal antibody (IgG1κ), mouse hybridoma; VL and VH domains given as sequences (antibody, V domains shown)
VH: B1 VH
VL: B1 VL
recognition of simian CD95L (simian CD95L): recognizes | recognition of human CD95L (human CD95L): recognizes | neutralizing ability (inhibition of CD95-mediated apoptotic signaling pathway) [4]: stronger neutralizing anti-CD95L mAb as compared to the commercial anti-CD95L antibody NOK-1; also recorded: inhibited the CD95-mediated apoptotic signaling pathway induced in T-cell line Jurkat more efficiently than NOK-1 mAb | inhibition of neutrophil activation (calcium response) [5]: inhibit neutrophil activation (calcium response); also recorded: blocked the CD95-mediated Ca^2+ response
